Data from patent US6537765B2, “GPR10 as a target for identifying weight modulating compounds” (Millennium Pharmaceuticals, Inc., priority 1998, dated 2003).
No end group written: not given here.

Experiments:
[1] = system: anterior pituitary cells of lactating rats; conditions: anterior pituitary cells of lactating rats in vitro; cited from earlier work
[2] = target: T1, GPR10 (Mus musculus, UniProt Q6VMN6); experiment: Metabolic rate of mice in an open-circuit calorimeter after intracerebroventricular PrRP; assay type: in vivo; conditions: 5 μg PrRP intracerebroventricular vs saline
T1 construct: from tissue; host or cells: brain of living C57BL/6J mice (lean and ob/ob), intracerebroventricular dosing
T1 sequence (Q6VMN6 1-370): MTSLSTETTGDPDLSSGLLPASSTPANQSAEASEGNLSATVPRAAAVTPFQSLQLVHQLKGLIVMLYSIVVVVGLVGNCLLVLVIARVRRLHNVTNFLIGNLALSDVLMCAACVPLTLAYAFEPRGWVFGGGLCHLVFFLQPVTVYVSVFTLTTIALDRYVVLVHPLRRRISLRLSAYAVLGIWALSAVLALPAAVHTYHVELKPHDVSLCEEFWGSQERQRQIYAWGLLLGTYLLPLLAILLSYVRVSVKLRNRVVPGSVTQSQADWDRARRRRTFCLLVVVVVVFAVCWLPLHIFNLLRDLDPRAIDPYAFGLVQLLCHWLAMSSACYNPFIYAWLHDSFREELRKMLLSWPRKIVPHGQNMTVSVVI
Procedure: The effect of a 5 μg dose of PrRP on the metabolic rate of male mice denied or permitted access to food was investigated as follows. Male C57BL/6J mice maintained as described above were placed in an open-circuit calorimeter coupled to a feeding monitor. The mice were administered 5 μg of PrRP or saline intracerebroventricularly at 1 hr and 45 min after the start of metabolic monitoring. One group (n=6) of mice was allowed access to food and one group of mice (n=6) was not allowed access to food. Respiratory quotient was calculated as the ratio of CO2 production/O2 consumption. Metabolic rate (kcal/g/h) was computed based on O2 consumption and respiratory rate quotient.

[3] = target: T1, GPR10; experiment: Food intake after intracerebroventricular injection of PrRP in mice; assay type: in vivo; conditions: 0.1, 1, 5, 10 mg PrRP intracerebroventricular vs saline, measured for two hours after treatment
Procedure: A 31 amino acid amidated synthetic peptide having the sequence of rat PrRP ([…]-NHz; SEQ ID NO:4; Hinuma et al., (1998) Nature 393:272-76) was used to examine the effect of GPR10 modulators on food intake.
Male and female lean and male obese ob/ob C57BL/6J mice were individually housed in macrolon cages (22±2° C.; 12:12 hr light:dark cycle with lights off at 6 pm). Tap water and mouse chow were given ad libitum. Mice were stereoaxically implanted with a chronic guide cannula aimed to the third ventricle (intracerebroventricular) one week prior to the initiation of the experiment.
Mice (15/group) were treated with […] of PrRP peptide or saline (control) by intracerebroventricular injections at 9:00 am. Food intake was measured for two hours after treatment.

[4] = target: T2, hGR3 (Homo sapiens, UniProt P49683); conditions: receptor expressed in human pituitary, nearly identical to GPR10; cited from earlier work
T2 sequence (P49683 1-370): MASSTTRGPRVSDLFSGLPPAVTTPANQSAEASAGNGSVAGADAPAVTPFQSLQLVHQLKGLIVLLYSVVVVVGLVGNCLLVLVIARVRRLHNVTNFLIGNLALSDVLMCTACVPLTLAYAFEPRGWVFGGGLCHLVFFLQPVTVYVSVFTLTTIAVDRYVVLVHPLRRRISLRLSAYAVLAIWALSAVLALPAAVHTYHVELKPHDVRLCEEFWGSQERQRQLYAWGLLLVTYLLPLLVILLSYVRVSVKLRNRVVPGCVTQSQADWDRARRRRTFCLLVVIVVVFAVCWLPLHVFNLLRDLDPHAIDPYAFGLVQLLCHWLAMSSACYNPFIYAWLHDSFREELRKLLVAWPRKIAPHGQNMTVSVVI

For “PrRP: 31 amino acid amidated synthetic peptide having the sequence of rat PrRP (SRAHQHSMETRTPDINPAWYTGRGIRPVGRF-NHz; SEQ ID NO:4); a GPR10 ligand (SRAHQHSMETRTPDINPAWYTGRGIRPVGRF-NH2; listed as Mus musculus)”, the release of prolactin [1] is listed as “stimulates release of prolactin”, the metabolic rate ([2]; lean male C57BL/6J mice having access to food, FIG. 7) is listed as “increases the metabolic rate” and the metabolic rate ([2]; lean male C57BL/6J mice having no access to food, FIG. 6) is listed as “increases the metabolic rate”. The food intake ([3]; lean female C57BL/6J mice, FIG. 4) was “increased food intake”, the food intake ([3]; lean male C57BL/6J mice, FIG. 3) was “increased food intake” and the food intake ([3]; male obese ob/ob C57BL/6J mice, FIG. 5) was “increased food intake”. The “binding to hGR3” value [4] was “binds to hGR3”.
